{"source": "the supplement of paper PMC10065799", "about": "“High-throughput profiling of sequence recognition by tyrosine kinases and SH2 domains using bacterial peptide display” (eLife, 2023);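 note: 11-residue human phosphosite peptides and single-mutation variants displayed on the E. coli surface, counted by deep sequencing, each peptide's frequency after selection divided by its frequency in the unselected input library; frequency after pTyr selection over input frequency; kinase dosed for 20-30% of maximal phosphorylation in three min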"}
{"tested_on": "AncSZ", "assay": "phosphorylation enrichment, bacterial display (enrichment ratio); higher = better substrate or ligand; peptides without Tyr show the background"}
{"sequence": "AIFEGYALPHA [ACTC1_Y171_P166A_YF]", "phosphorylation enrichment": 0.732}
{"sequence": "EVEPRYVVLYD [ERCC4_Y577]", "phosphorylation enrichment": 1.22}
{"sequence": "RHCSGYVLIAM [EFR3A_Y73_R70C]", "phosphorylation enrichment": 0.885}
{"sequence": "SRGSSYSSIPK [FLNC_Y2625]", "phosphorylation enrichment": 0.474}
{"sequence": "CTHDLYMFMRE [FGFR3_Y724_I726F]", "phosphorylation enrichment": 1.43}
{"sequence": "NIEPVYLNMLL [ATR_Y317]", "phosphorylation enrichment": 1.58}
{"sequence": "RIGRKYKKVRF [F8_Y442]", "phosphorylation enrichment": 0.47}
{"sequence": "KTGNIYRTEFG [MRPL3_Y265_M261T_YF]", "phosphorylation enrichment": 0.585}
{"sequence": "KSVSQYLEMDK [CAGE1_Y438]", "phosphorylation enrichment": 0.748}
{"sequence": "YETDYYQKGGK [INSR_Y1190_R1191Q]", "phosphorylation enrichment": 1.34}
{"sequence": "FADIAYNYRHR [PAH_Y166_G171R]", "phosphorylation enrichment": 0.624}
{"sequence": "EASGIYVKSVI [PATJ_Y396_I400V]", "phosphorylation enrichment": 0.958}
{"sequence": "YYHCTYKQRMI [CLEC12A_Y242_K244Q]", "phosphorylation enrichment": 1.64}
{"sequence": "VFSIDYFRVGG [NTRK2_Y706_T704I_YF]", "phosphorylation enrichment": 1.35}
{"sequence": "PGGKIYISPLK [RB1_Y805_N803K]", "phosphorylation enrichment": 0.598}
{"sequence": "LGGSPYPGVPV [FGFR1_Y701]", "phosphorylation enrichment": 0.591}
{"sequence": "CTTIHYNNMCN [TP53_Y234_Y236N]", "phosphorylation enrichment": 0.734}
{"sequence": "GESLTYASTTF [C1orf162_Y120]", "phosphorylation enrichment": 0.592}
{"sequence": "ENFSEYQEISV [HEMGN_Y150_A154S]", "phosphorylation enrichment": 1.59}
{"sequence": "SSYSRYIMMPN [LEF1_Y114_G113R]", "phosphorylation enrichment": 0.654}
{"sequence": "GKSDPYHATSG [GJA1_Y247]", "phosphorylation enrichment": 0.426}
{"sequence": "NVFGNYNNQSS [HNRNPA1_Y318_D314V]", "phosphorylation enrichment": 0.475}
{"sequence": "VKFLGYPPPEI [KDR_Y357_A352V_YF]", "phosphorylation enrichment": 0.692}
{"sequence": "GFVEDYRPPFY [ACVRL1_Y421_I417F]", "phosphorylation enrichment": 1.33}
{"sequence": "RRRLIYRCQVG [NR2E3_Y81]", "phosphorylation enrichment": 0.776}
{"sequence": "FVHDNYVIWRT [CPS1_Y1450_R1453W]", "phosphorylation enrichment": 1.28}
{"sequence": "STLEVYRCHPP [IL21R_Y317_S318R]", "phosphorylation enrichment": 1.11}
{"sequence": "MRTMGYMPREM [CABP5_Y62_T65R]", "phosphorylation enrichment": 0.494}
{"target": "EPHB1 (UniProt P54762)", "sequence (P54762 whole entry, looked up)": "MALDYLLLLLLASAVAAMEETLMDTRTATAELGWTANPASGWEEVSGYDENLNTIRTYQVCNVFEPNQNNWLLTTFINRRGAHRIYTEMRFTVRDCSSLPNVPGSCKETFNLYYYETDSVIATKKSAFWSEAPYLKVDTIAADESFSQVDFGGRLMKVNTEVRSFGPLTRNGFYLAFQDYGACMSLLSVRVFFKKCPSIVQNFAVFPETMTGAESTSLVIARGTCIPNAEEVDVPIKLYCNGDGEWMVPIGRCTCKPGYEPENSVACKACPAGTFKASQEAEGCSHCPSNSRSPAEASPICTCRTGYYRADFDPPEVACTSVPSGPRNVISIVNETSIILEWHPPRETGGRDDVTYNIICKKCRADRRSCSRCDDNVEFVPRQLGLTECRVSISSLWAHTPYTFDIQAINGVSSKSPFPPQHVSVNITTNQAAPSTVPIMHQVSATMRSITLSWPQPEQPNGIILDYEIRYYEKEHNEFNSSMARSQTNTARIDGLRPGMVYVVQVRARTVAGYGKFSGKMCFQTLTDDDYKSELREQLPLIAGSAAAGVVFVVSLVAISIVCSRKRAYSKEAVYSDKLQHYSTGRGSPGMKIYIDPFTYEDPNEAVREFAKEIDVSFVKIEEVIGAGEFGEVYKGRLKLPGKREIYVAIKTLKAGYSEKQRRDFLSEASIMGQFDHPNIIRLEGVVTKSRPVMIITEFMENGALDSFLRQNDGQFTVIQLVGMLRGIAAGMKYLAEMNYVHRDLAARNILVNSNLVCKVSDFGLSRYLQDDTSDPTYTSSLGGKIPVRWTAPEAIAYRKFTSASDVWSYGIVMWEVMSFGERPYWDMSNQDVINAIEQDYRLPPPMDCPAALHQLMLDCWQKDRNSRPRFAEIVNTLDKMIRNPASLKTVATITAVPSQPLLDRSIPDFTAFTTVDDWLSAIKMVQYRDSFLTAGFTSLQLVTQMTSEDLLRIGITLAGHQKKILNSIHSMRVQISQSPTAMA", "assay": "phosphorylation enrichment, bacterial display (enrichment ratio); higher = better substrate or ligand; peptides without Tyr show the background"}
{"sequence": "AIFEGYALPHA [ACTC1_Y171_P166A_YF]", "phosphorylation enrichment": 0.452}
{"sequence": "EVEPRYVVLYD [ERCC4_Y577]", "phosphorylation enrichment": 3.5}
{"sequence": "RHCSGYVLIAM [EFR3A_Y73_R70C]", "phosphorylation enrichment": 0.51}
{"sequence": "SRGSSYSSIPK [FLNC_Y2625]", "phosphorylation enrichment": 0.304}
{"sequence": "CTHDLYMFMRE [FGFR3_Y724_I726F]", "phosphorylation enrichment": 2.23}
{"sequence": "NIEPVYLNMLL [ATR_Y317]", "phosphorylation enrichment": 6.94}
{"sequence": "RIGRKYKKVRF [F8_Y442]", "phosphorylation enrichment": 0.338}
{"sequence": "KTGNIYRTEFG [MRPL3_Y265_M261T_YF]", "phosphorylation enrichment": 0.422}
{"sequence": "KSVSQYLEMDK [CAGE1_Y438]", "phosphorylation enrichment": 0.422}
{"sequence": "YETDYYQKGGK [INSR_Y1190_R1191Q]", "phosphorylation enrichment": 0.63}
{"sequence": "FADIAYNYRHR [PAH_Y166_G171R]", "phosphorylation enrichment": 0.391}
{"sequence": "EASGIYVKSVI [PATJ_Y396_I400V]", "phosphorylation enrichment": 0.543}
{"sequence": "YYHCTYKQRMI [CLEC12A_Y242_K244Q]", "phosphorylation enrichment": 0.63}
{"sequence": "VFSIDYFRVGG [NTRK2_Y706_T704I_YF]", "phosphorylation enrichment": 0.874}
{"sequence": "PGGKIYISPLK [RB1_Y805_N803K]", "phosphorylation enrichment": 0.361}
{"sequence": "LGGSPYPGVPV [FGFR1_Y701]", "phosphorylation enrichment": 0.493}
{"sequence": "CTTIHYNNMCN [TP53_Y234_Y236N]", "phosphorylation enrichment": 0.455}
{"sequence": "GESLTYASTTF [C1orf162_Y120]", "phosphorylation enrichment": 0.5}
{"sequence": "ENFSEYQEISV [HEMGN_Y150_A154S]", "phosphorylation enrichment": 2.45}
{"sequence": "SSYSRYIMMPN [LEF1_Y114_G113R]", "phosphorylation enrichment": 1.9}
{"sequence": "GKSDPYHATSG [GJA1_Y247]", "phosphorylation enrichment": 0.355}
{"sequence": "NVFGNYNNQSS [HNRNPA1_Y318_D314V]", "phosphorylation enrichment": 0.421}
{"sequence": "VKFLGYPPPEI [KDR_Y357_A352V_YF]", "phosphorylation enrichment": 0.452}
{"sequence": "GFVEDYRPPFY [ACVRL1_Y421_I417F]", "phosphorylation enrichment": 0.495}
{"sequence": "RRRLIYRCQVG [NR2E3_Y81]", "phosphorylation enrichment": 0.76}
{"sequence": "FVHDNYVIWRT [CPS1_Y1450_R1453W]", "phosphorylation enrichment": 6.57}
{"sequence": "STLEVYRCHPP [IL21R_Y317_S318R]", "phosphorylation enrichment": 0.758}
{"sequence": "MRTMGYMPREM [CABP5_Y62_T65R]", "phosphorylation enrichment": 0.369}
